Target: T1, human CD19 (human, UniProt P15391 20-556)
T1 construct: CD19 on B cells of healthy subjects and patients (receptor occupancy in clinical studies); also called human B-cell restricted surface antigen CD19
T1 sequence: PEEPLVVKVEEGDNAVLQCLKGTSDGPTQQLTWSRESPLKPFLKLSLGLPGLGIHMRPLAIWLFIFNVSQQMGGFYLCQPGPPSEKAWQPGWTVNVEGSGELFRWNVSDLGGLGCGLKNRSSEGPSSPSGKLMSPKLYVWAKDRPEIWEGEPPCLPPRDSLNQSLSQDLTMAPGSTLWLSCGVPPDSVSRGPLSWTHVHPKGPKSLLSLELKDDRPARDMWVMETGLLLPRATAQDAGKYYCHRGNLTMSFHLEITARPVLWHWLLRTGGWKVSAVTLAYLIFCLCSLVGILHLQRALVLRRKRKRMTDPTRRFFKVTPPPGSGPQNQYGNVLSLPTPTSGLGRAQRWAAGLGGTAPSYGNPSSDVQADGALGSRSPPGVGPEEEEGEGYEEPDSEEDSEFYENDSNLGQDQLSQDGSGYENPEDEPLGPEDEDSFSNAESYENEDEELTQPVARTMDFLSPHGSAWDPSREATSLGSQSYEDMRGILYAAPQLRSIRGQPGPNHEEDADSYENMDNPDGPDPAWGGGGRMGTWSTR
Experiment: population PK/PD model of CD19 receptor occupancy (direct response, sigmoidal Emax) against plasma obexelimab concentration, fitted to data of 4 clinical studies (healthy subjects, RA and IgG4-RD patients); in vivo plasma concentration for half-maximal CD19 receptor occupancy, population PK/PD model fit

B1: Obexelimab (antibody, human IgG1, kappa, V domains shown)
VH: EVQLVESGGGLVKPGGSLKLSCAASGYTFTSYVMHWVRQAPGKGLEWIGYINPYNDGTKYNEKFQGRVTISSDKSISTAYMELSSLRSEDTAMYYCARGTYYYGTRVFDYWGQGTLVTVSS
VL: DIVMTQSPATLSLSPGERATLSCRSSKSLQNVNGNTYLYWFQQKPGQSPQLLIYRMSNLNSGVPDRFSGSGSGTEFTLTISSLEPEDFAVYYCMQHLEYPITFGAGTKLEIKR
notes: Humanized IgG1 kappa; also called XmAb5871; anti-CD19 antibody
EC50: 0.0745 µg/mL
